This assay has as its target T1, αβ tubulin dimer (pig, UniProt P02550;P02554).
T1 construct: source: purified from pig brain
As to the kind of experiment: ELISA; tubulin coated on a Nunc Maxisorp 96-well plate; 5-20 μl of cytoplasmic extract of E. coli expressing the scFv; revealed with 9E10 and HRP anti-mouse IgG; also done in presence or absence of 10 mM DTT. Conditions: one partner purified.

Substitutions are numbered along the chain they refer to.

This is an account of results in publication PMC2241821, “A focused antibody library for selecting scFvs expressed at high levels in the cytoplasm” (BMC Biotechnology, 2007).

B1: anti-tubulin scFv E12C (scFv, V domains shown)
VH: EVQLVESGGSLVKPGGSLRLSCAASGFTFSNYSMNWVRQAPGKGLEWISSISGSSRYIYYADFVKGRFTISRDNATNSLYLQMNSLRAEDTAVYYCVRSGGNTFDYWGRGTLVTVSS
VL: QSVLTQPASVSGSPGQSITISCAGTSSDVGGYNYVSWYQQHPGKAPKLMIYEDSKRPSGVSNRFSGSKSGNTASLTISGLQAEDEADYYCQQYYRKPWTFGGGTKLAVL
notes: source: E. coli BL21(DE3)pLysS cytoplasm (pET23NN); in cell extract, and purified (Ni-NTA); not shown: c-myc, C-terminal, kept
Consider B1, for which the binding result is listed as “binds”.

B2: anti-tubulin scFv F1C (scFv, V domains shown)
VH: EVQLVESGGSLVKPGGSLRLSCAASGFTFSNYSMNWVRQAPGKGLEWISSISGSSRYIYYADFVKGRFTISRDNATNSLYLQMNSLRAEDTAVYYCVRGNADGGENWELFDKWGRGTLVTVSS
VL: B1 VL with Q92L, Y94Q, R95N, K96T, P97L
notes: as for B1
For the molecule B2, the binding result is reported as “binds”.
